Test results taken from US20100137566A1.

Assays:
[1] = biological target: GST-karyopherin α (karyopherin α expressed as a fusion protein with glutathione S-transferase), immobilized on glutathione Sepharose beads; assay: pull-down on GST-karyopherin α beads, PCR
[2] = biological target: GST-karyopherin α (karyopherin α expressed as a fusion protein with glutathione S-transferase), immobilized on glutathione Sepharose beads; assay: pull-down on GST-karyopherin α beads, PCR, Phosphorimager; against untreated lysate
[3] = biological target: GST-karyopherin α (karyopherin α expressed as a fusion protein with glutathione S-transferase), immobilized on glutathione Sepharose beads; assay: pull-down on GST-karyopherin α beads, PCR; against untreated extract

HIV-1NLHX pre-integration complexes with mutated MA NLS (MA NLS- Vpr+)
binding as percent of that of MA NLS+ complexes (% of MA NLS+ complexes) [1]: 1 to 5

HIV-1RF pre-integration complexes
fold reduction of binding in the presence of 0.1 µM CNI-H0294 (small molecule) [2]: 8 fold
fold reduction of binding in the presence of 1 µM CNI-H0294 (small molecule) [2]: 25 fold

wild-type HIV-1NLHX pre-integration complexes
percent reduction of binding in the presence of 1 µM CNI-H0294 (small molecule) [3]: 95%

HIV-1NLHX pre-integration complexes that lack Vpr (MA NLS+ Vpr-)
percent reduction of binding in the presence of 1 µM CNI-H0294 (small molecule) [3]: 95%
